Measurements reported in the supplement of paper PMC10567573.

B1: HDAC6 (parent)
chain: ACAQLATGAACRLVEAVLSGEVLN

Variants of: B1
Assay: protein stability index of a GFP-peptide fusion (GPS, HEK-293T) (PSI 1-6); higher = more stable
Details: c terminus: a fixed tail appended
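Note: lentivirally expressed fusions sorted by FACS into six bins by GFP to DsRed ratio, PSI derived from sequencing read proportions per bin multiplied by bin number.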

Compared with AEAQLATGAACRLVEAVLSGEVLN [C2E], AKAQLATGAACRLVEAVLSGEVLN [C2K] is lower in protein stability index: 2 for the first, 1.99 for the second.

Compared with ALAQLATGAACRLVEAVLSGEVLN [C2L], ANAQLATGAACRLVEAVLSGEVLN [C2N] is lower in protein stability index: 3.12 for the first, 1.21 for the second.

First: APAQLATGAACRLVEAVLSGEVLN [C2P]
Second: AQAQLATGAACRLVEAVLSGEVLN [C2Q]
The protein stability index of the first is lower: 1.82 for the first, 2.97 for the second.

First: ASAQLATGAACRLVEAVLSGEVLN [C2S]
Second: ATAQLATGAACRLVEAVLSGEVLN [C2T]
The protein stability index of the first is lower: 1.08 for the first, 3.63 for the second.

Compared with ACDQLATGAACRLVEAVLSGEVLN [A3D], ACFQLATGAACRLVEAVLSGEVLN [A3F] is higher in protein stability index: 2.88 for the first, 3.94 for the second.

Going from ACNQLATGAACRLVEAVLSGEVLN [A3N] to ACSQLATGAACRLVEAVLSGEVLN [A3S], the protein stability index rises from 1.68 to 4.04.

Going from ACWQLATGAACRLVEAVLSGEVLN [A3W] to ACAALATGAACRLVEAVLSGEVLN [Q4A], the protein stability index rises from 2.17 to 2.68.

Going from ACAELATGAACRLVEAVLSGEVLN [Q4E] to ACAILATGAACRLVEAVLSGEVLN [Q4I], the protein stability index falls from 2.92 to 1.55.

First: ACAKLATGAACRLVEAVLSGEVLN [Q4K]
Second: ACAPLATGAACRLVEAVLSGEVLN [Q4P]
The protein stability index of the first is higher: 2.69 for the first, 1.04 for the second.

Compared with ACAYLATGAACRLVEAVLSGEVLN [Q4Y], ACAQDATGAACRLVEAVLSGEVLN [L5D] is lower in protein stability index: 4.38 for the first, 2.61 for the second.

Compared with ACAQEATGAACRLVEAVLSGEVLN [L5E], ACAQGATGAACRLVEAVLSGEVLN [L5G] is lower in protein stability index: 2.48 for the first, 2.42 for the second.

First: ACAQHATGAACRLVEAVLSGEVLN [L5H]
Second: ACAQIATGAACRLVEAVLSGEVLN [L5I]
The protein stability index of the first is lower: 1.42 for the first, 1.51 for the second.

First: ACAQMATGAACRLVEAVLSGEVLN [L5M]
Second: ACAQNATGAACRLVEAVLSGEVLN [L5N]
The protein stability index of the first is higher: 2.68 for the first, 1.81 for the second.

Compared with ACAQPATGAACRLVEAVLSGEVLN [L5P], ACAQQATGAACRLVEAVLSGEVLN [L5Q] is higher in protein stability index: 2.2 for the first, 2.67 for the second.

Compared with ACAQTATGAACRLVEAVLSGEVLN [L5T], ACAQVATGAACRLVEAVLSGEVLN [L5V] is lower in protein stability index: 1.37 for the first, 1.16 for the second.

Going from ACAQLCTGAACRLVEAVLSGEVLN [A6C] to ACAQLDTGAACRLVEAVLSGEVLN [A6D], the protein stability index falls from 2.49 to 2.11.

Going from ACAQLETGAACRLVEAVLSGEVLN [A6E] to ACAQLGTGAACRLVEAVLSGEVLN [A6G], the protein stability index falls from 2.35 to 2.25.

Going from ACAQLHTGAACRLVEAVLSGEVLN [A6H] to ACAQLITGAACRLVEAVLSGEVLN [A6I], the protein stability index rises from 1 to 3.57.

First: ACAQLKTGAACRLVEAVLSGEVLN [A6K]
Second: ACAQLNTGAACRLVEAVLSGEVLN [A6N]
The protein stability index of the first is lower: 1.19 for the first, 1.48 for the second.

Compared with ACAQLQTGAACRLVEAVLSGEVLN [A6Q], ACAQLTTGAACRLVEAVLSGEVLN [A6T] is lower in protein stability index: 2.74 for the first, 1.39 for the second.

Compared with ACAQLADGAACRLVEAVLSGEVLN [T7D], ACAQLAMGAACRLVEAVLSGEVLN [T7M] is higher in protein stability index: 1.79 for the first, 3.57 for the second.

First: ACAQLANGAACRLVEAVLSGEVLN [T7N]
Second: ACAQLASGAACRLVEAVLSGEVLN [T7S]
The protein stability index of the first is lower: 1.54 for the first, 2.78 for the second.

Compared with ACAQLATCAACRLVEAVLSGEVLN [G8C], ACAQLATDAACRLVEAVLSGEVLN [G8D] is lower in protein stability index: 2.74 for the first, 2.67 for the second.

Going from ACAQLATMAACRLVEAVLSGEVLN [G8M] to ACAQLATSAACRLVEAVLSGEVLN [G8S], the protein stability index rises from 1.28 to 1.94.

Going from ACAQLATTAACRLVEAVLSGEVLN [G8T] to ACAQLATGDACRLVEAVLSGEVLN [A9D], the protein stability index falls from 3.69 to 2.61.

First: ACAQLATGEACRLVEAVLSGEVLN [A9E]
Second: ACAQLATGGACRLVEAVLSGEVLN [A9G]
The protein stability index of the first is higher: 3.49 for the first, 1.69 for the second.

First: ACAQLATGIACRLVEAVLSGEVLN [A9I]
Second: ACAQLATGKACRLVEAVLSGEVLN [A9K]
The protein stability index of the first is higher: 3.52 for the first, 2.23 for the second.

Going from ACAQLATGNACRLVEAVLSGEVLN [A9N] to ACAQLATGPACRLVEAVLSGEVLN [A9P], the protein stability index rises from 1.09 to 2.4.

First: ACAQLATGRACRLVEAVLSGEVLN [A9R]
Second: ACAQLATGWACRLVEAVLSGEVLN [A9W]
The protein stability index of the first is higher: 3 for the first, 2.99 for the second.

Going from ACAQLATGYACRLVEAVLSGEVLN [A9Y] to ACAQLATGACCRLVEAVLSGEVLN [A10C], the protein stability index rises from 1.68 to 2.16.

Going from ACAQLATGADCRLVEAVLSGEVLN [A10D] to ACAQLATGAECRLVEAVLSGEVLN [A10E], the protein stability index falls from 2.22 to 1.82.

Going from ACAQLATGAGCRLVEAVLSGEVLN [A10G] to ACAQLATGAICRLVEAVLSGEVLN [A10I], the protein stability index rises from 1.43 to 2.01.

Compared with ACAQLATGAKCRLVEAVLSGEVLN [A10K], ACAQLATGAPCRLVEAVLSGEVLN [A10P] is lower in protein stability index: 2.38 for the first, 2 for the second.

Compared with ACAQLATGAQCRLVEAVLSGEVLN [A10Q], ACAQLATGARCRLVEAVLSGEVLN [A10R] is lower in protein stability index: 1.71 for the first, 1.7 for the second.

First: ACAQLATGAYCRLVEAVLSGEVLN [A10Y]
Second: ACAQLATGAAARLVEAVLSGEVLN [C11A]
The protein stability index of the first is lower: 1.49 for the first, 2.9 for the second.

Going from ACAQLATGAAERLVEAVLSGEVLN [C11E] to ACAQLATGAAKRLVEAVLSGEVLN [C11K], the protein stability index rises from 1.04 to 2.29.

First: ACAQLATGAAPRLVEAVLSGEVLN [C11P]
Second: ACAQLATGAARRLVEAVLSGEVLN [C11R]
The protein stability index of the first is higher: 2.27 for the first, 1.78 for the second.

First: ACAQLATGAACALVEAVLSGEVLN [R12A]
Second: ACAQLATGAACDLVEAVLSGEVLN [R12D]
The protein stability index of the first is higher: 2.3 for the first, 1.48 for the second.

Compared with ACAQLATGAACGLVEAVLSGEVLN [R12G], ACAQLATGAACMLVEAVLSGEVLN [R12M] is higher in protein stability index: 1.26 for the first, 3.3 for the second.

First: ACAQLATGAACNLVEAVLSGEVLN [R12N]
Second: ACAQLATGAACPLVEAVLSGEVLN [R12P]
The protein stability index of the first is lower: 2.52 for the first, 2.66 for the second.

Compared with ACAQLATGAACQLVEAVLSGEVLN [R12Q], ACAQLATGAACSLVEAVLSGEVLN [R12S] is lower in protein stability index: 1.97 for the first, 1.65 for the second.

Going from ACAQLATGAACTLVEAVLSGEVLN [R12T] to ACAQLATGAACYLVEAVLSGEVLN [R12Y], the protein stability index rises from 2.92 to 3.46.

Going from ACAQLATGAACRDVEAVLSGEVLN [L13D] to ACAQLATGAACRHVEAVLSGEVLN [L13H], the protein stability index falls from 3.58 to 3.21.

Compared with ACAQLATGAACRKVEAVLSGEVLN [L13K], ACAQLATGAACRMVEAVLSGEVLN [L13M] is lower in protein stability index: 3.91 for the first, 2.93 for the second.

Going from ACAQLATGAACRNVEAVLSGEVLN [L13N] to ACAQLATGAACRPVEAVLSGEVLN [L13P], the protein stability index rises from 2.06 to 2.53.

Compared with ACAQLATGAACRRVEAVLSGEVLN [L13R], ACAQLATGAACRSVEAVLSGEVLN [L13S] is lower in protein stability index: 2.5 for the first, 1.68 for the second.

Going from ACAQLATGAACRTVEAVLSGEVLN [L13T] to ACAQLATGAACRLAEAVLSGEVLN [V14A], the protein stability index rises from 1.93 to 2.05.
